Data: doi:10.1101/2024.11.14.623549 (bioRxiv, 2024)

B1: NusA conjugated to CLC (NusA-CLC) (natural protein, Saccharomyces cerevisiae, UniProt P17891 1-233, looked up)
chain: MSEKFPPLEDQNIDFTPNDKKDDDTDFLKREAEILGDEFKTEQDDILETEASPAKDDDEIRDFEEQFPDINSANGAVSSDQNGSATVSSGNDNGEADDDFSTFEGANQSTESVKEDRSEVVDQWKQRRAVEIHEKDLKDEELKKELQDEAIKHIDDFYDSYNKKKEQQLEDAAKEAEAFLKKRDEFFGQDNTTWDRALQLINQDDADIIGGRDRSKLKEILLRLKGNAKAPGA
B2: Clathrin Light Chain (CLC), residues 1-233 (natural protein, Saccharomyces cerevisiae, UniProt P17891 1-233, looked up)
chain: B1 chain
modifications: RED-NHS dye label
B3: Sla2ccRTH (Sla2 residues 351-968) (domain or fragment, Saccharomyces cerevisiae, UniProt P33338 351-968, looked up)
chain: ATAQMQPDFWANQQAQFANEQNRLEQERVQQLQQQQAQQELFQQQLQKAQQDMMNMQLQQQNQHQNDLIALTNQYEKDQALLQQYDQRVQQLESEITTMDSTASKQLANKDEQLTALQDQLDVWERKYESLAKLYSQLRQEHLNLLPRFKKLQLKVNSAQESIQKKEQLEHKLKQKDLQMAELVKDRDRARLELERSINNAEADSAAATAAAETMTQDKMNPILDAILESGINTIQESVYNLDSPLSWSGPLTPPTFLLSLLESTSENATEFATSFNNLIVDGLAHGDQTEVIHCVSDFSTSMATLVTNSKAYAVTTLPQEQSDQILTLVKRCAREAQYFFEDLMSENLNQVGDEEKTDIVINANVDMQEKLQELSLAIEPLLNIQSVKSNKETNPHSELVATADKIVKSSEHLRVDVPKPLLSLALMIIDAVVALVKAAIQCQNEIATTTSIPLNQFYLKNSRWTEGLISAAKAVAGATNVLITTASKLITSEDNENTSPEQFIVASKEVAASTIQLVAASRVKTSIHSKAQDKLEHCSKDVTDACRSLGNHVMGMIEDDHSTSQQQQPLDFTSEHTLKTAEMEQQVEILKLEQSLSNARKRLGEIRRHAYYNQDDD
B4: Sla1 SH3_3 domain (Sla1 residues 355-414) (domain or fragment, Saccharomyces cerevisiae)
chain: GAMAKKRGIVQYDFMAESQDELTIKSGDKVYILDDKKSKDWWMCQLVDSGKSGLVPAQFIEPVR
modifications: also: RED-NHS dye label, site not given here
B5: Sla2cc (Sla2 residues 296-767), WildType (domain or fragment, Saccharomyces cerevisiae, UniProt P33338 296-767, looked up)
chain: TPTPPVVAEPAISPRPVSQRTTSTPTGYLQTMPTGATTGMMIPTATGAANAIFPQATAQMQPDFWANQQAQFANEQNRLEQERVQQLQQQQAQQELFQQQLQKAQQDMMNMQLQQQNQHQNDLIALTNQYEKDQALLQQYDQRVQQLESEITTMDSTASKQLANKDEQLTALQDQLDVWERKYESLAKLYSQLRQEHLNLLPRFKKLQLKVNSAQESIQKKEQLEHKLKQKDLQMAELVKDRDRARLELERSINNAEADSAAATAAAETMTQDKMNPILDAILESGINTIQESVYNLDSPLSWSGPLTPPTFLLSLLESTSENATEFATSFNNLIVDGLAHGDQTEVIHCVSDFSTSMATLVTNSKAYAVTTLPQEQSDQILTLVKRCAREAQYFFEDLMSENLNQVGDEEKTDIVINANVDMQEKLQELSLAIEPLLNIQSVKSNKETNPHSELVATADKIVKSSEHLRVD
modifications: RED-NHS dye label (only in the MST against CLC:70-140 and Pan1:777-987)

Tests used:
[1] = target: B4; assay: MST
[2] = target: B3; assay: mass photometry
Sla2cc ΔSite1 (Δ515-546) = target: T1, Sla2cc ΔSite1 (Δ515-546) (Saccharomyces cerevisiae, UniProt P33338 296-767, Δ515-546); assay: MST
T1 sequence (looked up): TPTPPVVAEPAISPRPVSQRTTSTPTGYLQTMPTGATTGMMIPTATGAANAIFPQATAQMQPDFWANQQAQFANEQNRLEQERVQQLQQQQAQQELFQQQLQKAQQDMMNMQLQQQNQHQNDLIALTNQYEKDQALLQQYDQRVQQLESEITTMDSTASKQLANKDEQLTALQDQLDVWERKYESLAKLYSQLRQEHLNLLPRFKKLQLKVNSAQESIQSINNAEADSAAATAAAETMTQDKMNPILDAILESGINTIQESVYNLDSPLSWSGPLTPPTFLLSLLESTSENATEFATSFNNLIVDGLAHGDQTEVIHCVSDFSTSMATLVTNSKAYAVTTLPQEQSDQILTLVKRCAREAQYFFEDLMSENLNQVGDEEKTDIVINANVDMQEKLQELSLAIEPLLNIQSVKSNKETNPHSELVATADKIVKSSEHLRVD

mass photometry = target: the molecule itself; assay: mass photometry
[3] = target: T2, Sla2:270-350 (complete IDR of Sla2) (Saccharomyces cerevisiae, UniProt P33338 270-350); assay: MST
T2 sequence (looked up): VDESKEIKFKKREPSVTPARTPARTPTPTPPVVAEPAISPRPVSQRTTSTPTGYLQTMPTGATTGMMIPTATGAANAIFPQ

[4] = target: B2; assay: MST

**Q.** PVSTPARTPARTPTP [Sla2:283-297 peptide] was tested. Which Kd [1] did it give?
**A.** The Kd was 81200 nM.

**Q.** Which “stoichiometry N” value [2] does the source give for B1 here?
**A.** The value was 1 NusA-CLC per Sla2 dimer.

**Q.** Does B2 bind (Sla2cc ΔSite1 (Δ515-546))?
**A.** Result: binds

**Q.** How did the “stoichiometry N” value (mass photometry) turn out when B3 was run?
**A.** The value was 2.

**Q.** Which Kd [3] does the source give for B4 here?
**A.** The Kd was 900 nM.

**Q.** With B5 as the binder, how does the “KD of Site 1 (higher affinity site)” value [4] read?
**A.** The value was about 100 nM.

**Q.** And the “KD of Site 2 (lower affinity site)” value [4]?
**A.** Its value is 3000 nM.
